# Test results as given in patent US20200308299A1 (NATIONAL UNIVERSITY CORPORATION KOCHI UNIVERSITY, published 2020).
# Numbering of substitutions follows the chain as printed.
# T1: mouse Glypican-1 expressed on LLC-mGPC1-16 cells (mouse, UniProt Q9QZF2 24-529)
# T1 sequence: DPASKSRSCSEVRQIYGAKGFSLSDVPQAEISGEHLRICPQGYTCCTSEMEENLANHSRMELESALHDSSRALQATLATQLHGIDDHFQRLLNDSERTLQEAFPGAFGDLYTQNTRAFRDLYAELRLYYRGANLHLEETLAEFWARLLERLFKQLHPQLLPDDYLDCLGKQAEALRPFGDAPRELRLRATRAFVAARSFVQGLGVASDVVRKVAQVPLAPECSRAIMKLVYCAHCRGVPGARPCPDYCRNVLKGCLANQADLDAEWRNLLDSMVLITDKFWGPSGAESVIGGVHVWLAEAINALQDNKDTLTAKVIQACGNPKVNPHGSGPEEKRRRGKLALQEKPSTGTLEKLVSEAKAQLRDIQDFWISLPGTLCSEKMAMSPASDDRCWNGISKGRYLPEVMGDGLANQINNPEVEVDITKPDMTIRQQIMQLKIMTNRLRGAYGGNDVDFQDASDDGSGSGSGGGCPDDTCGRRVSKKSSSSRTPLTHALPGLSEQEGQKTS
# T2: human Glypican-1 on the surface of human cancer cell strains (TE8, TE14 and others) (human, UniProt P35052 24-530)
# T2 construct: Endogenous GPC1 of the cell strains; also called GPC1; GPC-1
# T2 sequence: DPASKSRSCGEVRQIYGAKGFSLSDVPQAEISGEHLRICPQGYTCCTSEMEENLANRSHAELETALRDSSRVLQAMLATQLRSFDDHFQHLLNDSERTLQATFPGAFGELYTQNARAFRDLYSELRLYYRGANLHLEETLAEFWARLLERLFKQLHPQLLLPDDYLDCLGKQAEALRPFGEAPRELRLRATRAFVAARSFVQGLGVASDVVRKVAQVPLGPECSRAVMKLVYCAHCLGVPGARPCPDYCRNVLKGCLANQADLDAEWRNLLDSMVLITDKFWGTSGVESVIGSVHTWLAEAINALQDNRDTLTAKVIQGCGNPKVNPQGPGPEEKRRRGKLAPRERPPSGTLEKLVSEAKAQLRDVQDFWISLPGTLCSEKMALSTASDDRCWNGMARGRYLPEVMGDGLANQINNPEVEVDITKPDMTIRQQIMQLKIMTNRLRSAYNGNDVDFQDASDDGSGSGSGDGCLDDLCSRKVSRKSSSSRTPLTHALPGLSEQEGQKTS
# T3: recombinant human Glypican-1 protein (R&D Systems, CF, 4519-GP-050) (human, UniProt P35052 24-530)
# T3 construct: Bought protein; also called recombinant human GPC1
# T3 sequence: T2 sequence
# T4: human Glypican-1 (human, UniProt P35052 24-530, limits assumed)
# T4 construct: also called human GPC1
# T4 sequence: T2 sequence
# B1: GPC1-CL-MMAF (clone 01a033 conjugated to MC-vc-PAB-MMAF) (antibody, V domains shown)
# VH: QVQLKQSGPELVKPGASVKISCKASGYSFTGYYMHWVKQSPEKSLEWIGEINPSTGDTTYNQKFKAKATLTVDKSSSTAYMQLKSLTSEDSAVYYCAREKRDDGVFAYWGQGTLVTVSS
# VL: DIVMSQSPKSMSMSVGERVALSCKASENVGTYVSWYQQKPEQSPKLLIYGASNRYTGVPDRFTGSGSATDFTLTISSVQAEDLADYYCGQSYSYPLTFGAGTKLELKR
# modifications: MC-vc-PAB-MMAF bound by maleimide to reduced inter-strand cysteines; DAR 4.1 (printed as 3.8 in paragraph 359)
# notes: Antibody-drug conjugate of mouse IgG2a clone 01a033; also called 01a033 ADC; GPC1 ADC
# B2: anti-Glypican-1 antibody clone K090-02b006 (antibody, mouse IgG2a, kappa, V domains shown)
# VH: EVQLVESGGGLVKPGGSRKLSCAASGFTFSDYGMHWVRQAPEKGLEWVAYISSGSSTIYYADTVKGRFTISRDNAKNTLFLQMTSLRSEDTAIYYCVRHSYYNYDIGGYYAMDYWGQGTSVTVSS
# VL: DIVLTQSPSSLSASLGERVSLTCRASQEISGYLSWLQQKPDGTIKRLIYAASTLDSGVPKRFSGSRSGSDYSLTISSLESEDFADYYCLQYASYPLTFGAGTKLEIKR
# notes: also called biotin-labeled 02b006; biotin-labeled anti-GPC1 antibody 02b006
# B3: anti-Glypican-1 antibody clone K090-01a033 (antibody, mouse IgG2a, kappa, V domains shown)
# VH: B1 VH
# VL: B1 VL
# notes: Selected as scFv on phage; also called clone 01a033; anti-GPC1 monoclonal antibody (01a033)
# B4: anti-Glypican-1 antibody clone K090-02a014 (antibody, mouse IgG2a, kappa, V domains shown)
# VH: EVQLQQSGPELVKPGASVKISCKASGYSFTGYYIHWVKQSPEKSLEWIGEINPSTGDITYNQKFKAKATLTVDKSSSTAYMQLKSLTSDDSAVYYCARERNYDRFAYWGQGTLVTVSS
# VL: SIVMTQTPALMAASPGEKVTITCSVSSSISSSNLHWYQQKSETSPKPWIYGTSNLASGVPVRFSGSGSGTSYSLTISSMEAEDAATYYCQQWSSYPLTFGAGTKLEIKR
# notes: Selected as scFv on phage
# B5: anti-Glypican-1 antibody clone K090-02a034 (antibody, mouse IgG2a, kappa, V domains shown)
# VH: B4 VH with I34M, I58T, M81I, D89E
# VL: QIVLSQSPAIMSASPGEKVTMTCSASSSVSYMYWYQQKPGSSPRLLIYDTSNLASGVPVRFSGSGSGTSYSLTISRMEAEDAATYYCQQWSSYPLTFGAGTKLELKR
# notes: Selected as scFv on phage
# B6: anti-Glypican-1 antibody clone K090-02a006 (antibody, mouse IgG2a, kappa, V domains shown)
# VH: EVQLQQSGAELVKPGASVKISCRASGYSFTGYNMNWVKQSHGKSLEWIGNINPYYGTTNYNQKFKGKATLTVDKSSSTAYMQLNSLTSEDSAVYYCASDGYYGAMDYWGQGTSVTVSS
# VL: DIKMTQSPKFMSTSVGDRVSVTCKASQNVGTYVAWYQQKPGQSPKALIYSASYRYSGVPDRFTGTGSGTDFTLTISNVQSEDLAEYFCQQYYNYPLTFGAGTKLELKR
# notes: Selected as scFv on phage
# B7: anti-Glypican-1 antibody clone K090-01a030 (antibody, mouse IgG2a, kappa, V domains shown)
# VH: QVQLQQSGAELVRPGTSVKMSCKAAGYTFTNYWIGWVKQRPGHGLEWIGDIYPGGGYTHYNEKFKGKATLTADTSSSTAYMQLSSLTSEDSAIYYCARERVYYDGSRYFDVWGAGTTVTVSS
# VL: DIKMTQSPKFLPVSAGDRVTMTCKASQSVGNNVAWYQQKPGQSPKLLIYYASNRYTGVPDRFTGSGSGTDFTFTISSVQVEDLAVYFCQQHYSSPWTFGGGTKLEIKR
# notes: Selected as scFv on phage
# B8: anti-Glypican-1 antibody clone K090-01a017 (antibody, mouse IgG2a, kappa, V domains shown)
# VH: B7 VH with Q1E, A9G, I51L, Y103F
# VL: B7 VL with D1S, K3V, S7T
# notes: Selected as scFv on phage
# B9: anti-Glypican-1 antibody clone K090-01a026 (antibody, mouse IgG2a, kappa, V domains shown)
# VH: B7 VH with Q3H, Y108F
# VL: B7 VL with K3V, T5S
# notes: Selected as scFv on phage
# B10: anti-Glypican-1 antibody clone K090-01a042 (antibody, mouse IgG2a, kappa, V domains shown)
# VH: QVQLQQPGAELAKPGASVKMSCKASGYTFTRYWMHWVKQRPGQGLEWIGYINPSSGYTEYNQKFKDKATLTADKSSSTAYMQLSSLTSEDSAVYYCVRLGDYSYYFDYWGQGTTLTVSS
# VL: DVVMTQTPLSLPVSLGDQASISCRSSQSIVHSNGNTYLEWYLQKPGQSPKLLIYKVSNRFSGVPDRFSGSGSGTDFTLKISRVEAEDLGVYYCFQGSHVPWTFGGGTKLELKR
# notes: Selected as scFv on phage
# B11: anti-Glypican-1 antibody clone K090-01a007 (antibody, mouse IgG2a, kappa, V domains shown)
# VH: QVHLQQSGAELVKPGASVKLSCKASGYTFTSYWMHWVKQRPGQGLEWIGNIDPYDSETHYNQKFKDKATLTVDKSSSTAYMQLSSLTSEDSAVYYCARDSNWGYFDYWGQGTTLTVSS
# VL: B10 VL with I29L, E39H, Y92F, F94S, G96S, S97T
# notes: Selected as scFv on phage
# B12: anti-Glypican-1 antibody clone K090-01a002 (antibody, mouse IgG2a, kappa, V domains shown)
# VH: B1 VH with Q1E, K5Q, A24S, G31R, Q39H, F106L
# VL: B7 VL with K3Q, W96L, G100A, I106L
# notes: Selected as scFv on phage
# B13: anti-Glypican-1 antibody clone K090-01a021 (antibody, mouse IgG2a, kappa, V domains shown)
# VH: B1 VH with D57G
# VL: B7 VL with D1S, K3V, S7T, T72P, W96L, G100A, I106L
# notes: Selected as scFv on phage
# B14: anti-Glypican-1 antibody clone K090-02a002 (antibody, mouse IgG2a, kappa, V domains shown)
# VH: B2 VH with Q3K, I93M, V97A, N103S, I106V, Y109D, A111V
# VL: DIVMSQSPKFMSTSVGDRVSITCKASQDVGTAVAWYQQKPGQSPKLLIYWASTRHTGVPDRFTGSGSGTDFTLTISNVQSEDLADYFCQQYSSYPLTFGAGTKLEIKR
# notes: Selected as scFv on phage
# B15: anti-Glypican-1 antibody clone K090-02a010 (antibody, mouse IgG2a, kappa, V domains shown)
# VH: B2 VH with Q3K, S52N, E89G, I93M, V97A, N103S, I106V, Y109D, A111V
# VL: B14 VL with M4L, S5T
# notes: Selected as scFv on phage
# B16: anti-Glypican-1 antibody clone K090-01a009 (antibody, mouse IgG2a, kappa, V domains shown)
# VH: EVQLQQSGPELVKPGASVEISCKASGYSFTGYFMNWVKQSQGKSLEWIGRINPDNGDIFYNQKFKGKATLTVDKSSSTAHMELRSLTSEDSAVYYCARSWNWYFDVWGAGTTVTVSS
# VL: DIQMTQSPASLSASVGETVTITCRASENIYSYLAWYQQKQGKSPQLLVYNAKTLAEGVPSRFSGSGSGTQFSLKINSLQPEDFGSYYCQHHYGTPYTFGSGTKLEIKR
# notes: Selected as scFv on phage
# B17: anti-Glypican-1 antibody clone K090-02a022 (antibody, mouse IgG2a, kappa, V domains shown)
# VH: QVQLQQPGPELVKPGASVKMSCKASGYTFTDYYMNWVKQSHGKSLEWIGRVNPSNGGTSYNQKFKGKATLTVDKSLSTAYMQLNSLTSEDSAVYYCARSGENYYAMDYWGQGTSVTVSS
# VL: B16 VL with A51G, P59S, H90N, T94V, Y96W, S100G
# notes: Selected as scFv on phage
# B18: anti-Glypican-1 antibody clone K090-01a016 (antibody, mouse IgG2a, kappa, V domains shown)
# VH: QVHLQQSGPELVKPGASVKISCKASGYTFTDYYINWVKQKPGQGLEWIGYIDPYNDGSKYNEKFKGKATLTSDKSSSTAYMELSSLTSEDSAVYYCARTPYYSFYSYGFYFDYWGQGTTLTVSS
# VL: DIVLTQSPASLAVSLGQRATISCRASKSVSTSSYSYMHWYQQKPGQPPKLLIKYASYLESGVPARFSGSGSGTDFTLNIHPVEEEDAATYYCQHSREFPLTFGAGTKLELKR
# notes: Selected as scFv on phage
# B19: anti-Glypican-1 antibody clone K090-02a035 (antibody, mouse IgG2a, kappa, V domains shown)
# VH: QVQLQQSGAELVKPGASVKLSCKTSGYTFTSYWMHWVKQRPGQGLEWIGNIDPSDSETHYNQKFKDKATLTVDKSSSTAYMQLSGLTSEDSAVYYCARNLGYWGQGTSVTVSS
# VL: DIKMTQSPLSLPVSLGDQASISCRSSQSLVHSNGNTYLHWYLQKPGQSPKLLIYKVSNRFSGVPDRFSGSGSGTDFTLKISRVEAEDLGVYFCSQSTHVPYTFGGGTKLEIKR
# notes: Selected as scFv on phage
# Target: T1, mouse Glypican-1 expressed on …
# Experiment: cell-based or functional assay
row,Binder,"effect of suppressing growth (CellTiter-Glo, 72 hours), LLC-mGPC1-16 against LLC-control-7 [fold]"
1,B1,17

# Target: T2, human Glypican-1 on the surface of …
# Experiment: flow cytometry on TE8 cells, biotin-labelled 02b006 and streptavidin-PE
row,Binder,binding result
1,B2,binds

# Target: T3, recombinant human Glypican-1 protein …
# Experiment: ELISA on plate-coated recombinant human GPC1
row,Binder,binding result
1,B1,binds
2,B3,binds

# Target: T4, human Glypican-1
# Experiment: phage scFv panning, ELISA on immobilised human GPC1, cell-ELISA and flow cytometry on human GPC1 transformants and TE14 (Example 1)
row,Binder,binding result
1,B4,binds
2,B5,binds
3,B6,binds
4,B7,binds
5,B8,binds
6,B9,binds
7,B10,binds
8,B11,binds
9,B12,binds
10,B3,binds
11,B13,binds
12,B14,binds
13,B2,binds
14,B15,binds
15,B16,binds
16,B17,binds
17,B18,binds
18,B19,binds
